Assay results from patent US20020143164.

What was measured:
[1] = biological target: Endogenous Ras of HEK-293T cells

B1: Flag-tagged full-length GRF4 (protein)
chain: MKPLAIPANHGVMGQQEKHSLPADFTKLHLTDSLHPQVTHVSSSHSGCSITSDSGSSSLSDIYQATESEAGDMDLSGLPETAVDSEDDDDEEDIERASDPLMSRDIVRDCLEKDPIDRTDDDIEQLLEFMHQLPAFANMTMSVRRELCAVMVFAVVERAGTIVLNDGEELDSWSVILNGSVEVTYPDGKAEILCMGNSFGVSPTMDKEYMKGVMRTKVDDCQFVCIAQQDYCRILNQVEKNMQKVEEEGEIVMVKEHRELDRTGTRKGHIVIKGTSERLTMHLVEEHSVVDPTFIEDFLLTYRTFLSSPMEVGKKLLEWFNDPSLRDKVTRVVLLWVNNHFNDFEGDPAMTRFLEEFENNLEREKMGGHLRLLNIACAAKAKRRLMTLTKPSREAPLPFILLGGSEKGFGIFVDSVDSGSKATEAGLKRGDQILEVNGQNFENIQLSKAMEILRNNTHLSITVKTNLFVFKELLTRLSEEKRNGAPHLPKIGDIKKASRYSIPDLAVDVEQVIGLEKVNKKSKANTVGGRNKLKKILDKTRISILPQKPYNDIGIGQSQDDSIVGLRQTKHIPTALPVSGTLSSSNPDLLQSHHRILDFSATPDLPDQVLRVFKADQQSRYIMISKDTTAKEVVIQAIREFAVTATPDQYSLCEVSVTPEGVIKQRRLPDQLSKLADRIQLSGRYYLKNNMETETLCSDEDAQELLRESQISLLQLSTVEVATQLSMRNFELFRNIEPTEYIDDLFKLRSKTSCANLKRFEEVINQETFWVASEILRETNQLKRMKIIKHFIKIALHCRECKNFNSMFAIISGLNLAPVARLRTTWEKLPNKYEKLFQDLQDLFDPSRNMAKYRNVLNSQNLQPPIIPLFPVIKKDLTFLHEGNDSKVDGLVNFEKLRMIAKEIRHVGRMASVNMDPALMFRTRKKKWRSLGSLSQGSTNATVLDVAQTGGHKKRVRRSSFLNAKKLYEDAQMARKVKQYLSNLELEMDEESLQTLSLQCEPATNTLPKNPGDKKPVKSETSPVAPRAGSQQKAQSLPQPQQQPPPAHKINQGLQVPAVSLYPSRKKVPVKDLPPFGINSPQALKKILSLSEEGSLERHKKQAEDTISNASSQLSSPPTSPQSSPRKGYTLAPSGTVDNFSDSGHSEISSRSSIVSNSSFDSVPVSLHDERRQRHSVSIVETNLGMGRMERRTMIEPDQYSLGSYAPMSEGRGLYATATVISSPSTEELSQDQGDRASLDAADSGRGSWTSCSSGSHDNIQTIQHQRSWETLPFGHTHFDYSGDPAGLWASSSHMDQIMFSDHSTKYNRQNQSRESLEQAQSRASWASSTGYWGEDSEGDTGTIKRRGGKDVSIEAESSSLTSVTTEETKPVPMPAHIAVASSTTKGLIARKEGRYREPPPTPPGYIGIPITDFPEGHSHPARKPPDYNVALQRSRMVARSSDTAGPSSVQQPHGHPTSSRPVNKPQWHKPNESDPRLAPYQSQGFSTEEDEDEQVSAV
GST-Ras [GST: P08515]
GST-Ras [GST: P08515], sequence (P08515 whole entry, looked up, the tested form may be a part): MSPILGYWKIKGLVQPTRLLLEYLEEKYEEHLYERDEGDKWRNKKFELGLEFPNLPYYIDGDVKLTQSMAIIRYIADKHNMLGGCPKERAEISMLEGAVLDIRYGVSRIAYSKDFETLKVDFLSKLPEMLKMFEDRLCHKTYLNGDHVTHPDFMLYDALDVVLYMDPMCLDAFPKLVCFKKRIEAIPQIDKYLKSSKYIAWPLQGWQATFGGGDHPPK
  fold Ras activation in vitro (bound 32P-GTP, 30 min, against Ras without GRFs set to 1): ˜2.9 fold activation in 30 min.
[1]
  active Ras (Ras-GTP) precipitated with GST-Raf1-RBD from HEK-293T lysates: heterologous expression of GRF4 in HEK-293T cells led to a weak activation of endogenous Ras, which was greatly enhanced following stimulation of cells with ... 8-Br-cAMP

B2: Isolated CDC25 domain of GRF4 (protein)
chain: SLLQLSTVEVATQLSMRNFELFRNIEPTEYIDDLFKLRSKTSCANLKRFEEVINQETFWVASEILRETNQLKRMKIIKHFIKIALHCRECKNFNSMFAIISGLNLAPVARLRTTWEKLPNKYEKLFQDLQDLFDPSRNMAKYRNVLNSQNLQPPIIPLFPVIKKDLTFLHEGNDSKVDGLVNFEKLRMIAKEIRHVGRMASVNMDPALMFRTRKKKWRSLGSLSQGSTNATVLDVAQTGGHKKRVRRSSFLNAKKLYEDAQMARKVKQYLSNLELEMDEESLQTLSLQCEPATNT
GST-Ras [GST: P08515]
  Ras activation in vitro (GEF assay): we were unable to demonstrate significant activation of Ras by the isolated CDC25 domain of GRF4
